Measured values taken from article PMC3548793.

Columns and labels:
GFP-tagged Sec23 [1] = molecular target: GFP-tagged Sec23 (UniProt Q15436); experiment: co-immunoprecipitation (anti-GFP beads) and western blotting, single blot quantified; conditions: HEK293 cells co-transfected; parent: 1
GFP-Sec13 = GFP-Sec13 (UniProt P55735); experiment: co-immunoprecipitation and western blotting; conditions: parent: 0.8
GFP-tagged Sec23 [2] = molecular target: GFP-tagged Sec23 (UniProt Q15436); experiment: co-immunoprecipitation (anti-GFP beads) and western blotting, mean of three experiments; conditions: HEK293 cells co-transfected; parent: est. 1.0; read off a plot
Sec23 = Sec23 (UniProt Q15436); experiment: anti-GFP co-IP, anti-FLAG blot; conditions: reference: wild type; sites S527,S799

GFP-tagged Sec23, sequence (Q15436 whole entry): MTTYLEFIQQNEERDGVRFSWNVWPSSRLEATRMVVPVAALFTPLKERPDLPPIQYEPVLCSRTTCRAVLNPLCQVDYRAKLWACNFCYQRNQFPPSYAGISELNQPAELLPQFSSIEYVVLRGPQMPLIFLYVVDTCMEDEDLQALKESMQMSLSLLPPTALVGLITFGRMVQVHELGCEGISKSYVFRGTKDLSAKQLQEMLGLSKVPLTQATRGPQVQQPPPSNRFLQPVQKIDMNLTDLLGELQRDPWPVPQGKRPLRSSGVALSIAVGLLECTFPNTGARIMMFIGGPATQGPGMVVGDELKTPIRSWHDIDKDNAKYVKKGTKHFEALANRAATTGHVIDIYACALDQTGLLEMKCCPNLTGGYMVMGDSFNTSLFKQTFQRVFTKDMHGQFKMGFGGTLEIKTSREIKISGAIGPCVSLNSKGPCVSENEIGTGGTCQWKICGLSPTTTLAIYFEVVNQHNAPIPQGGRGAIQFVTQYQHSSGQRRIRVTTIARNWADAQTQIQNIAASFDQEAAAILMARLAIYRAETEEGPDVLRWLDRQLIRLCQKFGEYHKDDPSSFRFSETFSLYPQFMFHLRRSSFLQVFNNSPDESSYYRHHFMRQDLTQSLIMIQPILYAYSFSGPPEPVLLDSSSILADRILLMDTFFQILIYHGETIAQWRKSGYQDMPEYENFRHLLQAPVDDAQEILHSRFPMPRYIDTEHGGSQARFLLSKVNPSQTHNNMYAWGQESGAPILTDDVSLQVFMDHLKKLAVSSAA
FLAG-tagged wild type (WT) Sec31 (from UniProt O94979) S527A; S799A; T1163A; T1165A, sequence (O94979 whole entry, stated change not applied): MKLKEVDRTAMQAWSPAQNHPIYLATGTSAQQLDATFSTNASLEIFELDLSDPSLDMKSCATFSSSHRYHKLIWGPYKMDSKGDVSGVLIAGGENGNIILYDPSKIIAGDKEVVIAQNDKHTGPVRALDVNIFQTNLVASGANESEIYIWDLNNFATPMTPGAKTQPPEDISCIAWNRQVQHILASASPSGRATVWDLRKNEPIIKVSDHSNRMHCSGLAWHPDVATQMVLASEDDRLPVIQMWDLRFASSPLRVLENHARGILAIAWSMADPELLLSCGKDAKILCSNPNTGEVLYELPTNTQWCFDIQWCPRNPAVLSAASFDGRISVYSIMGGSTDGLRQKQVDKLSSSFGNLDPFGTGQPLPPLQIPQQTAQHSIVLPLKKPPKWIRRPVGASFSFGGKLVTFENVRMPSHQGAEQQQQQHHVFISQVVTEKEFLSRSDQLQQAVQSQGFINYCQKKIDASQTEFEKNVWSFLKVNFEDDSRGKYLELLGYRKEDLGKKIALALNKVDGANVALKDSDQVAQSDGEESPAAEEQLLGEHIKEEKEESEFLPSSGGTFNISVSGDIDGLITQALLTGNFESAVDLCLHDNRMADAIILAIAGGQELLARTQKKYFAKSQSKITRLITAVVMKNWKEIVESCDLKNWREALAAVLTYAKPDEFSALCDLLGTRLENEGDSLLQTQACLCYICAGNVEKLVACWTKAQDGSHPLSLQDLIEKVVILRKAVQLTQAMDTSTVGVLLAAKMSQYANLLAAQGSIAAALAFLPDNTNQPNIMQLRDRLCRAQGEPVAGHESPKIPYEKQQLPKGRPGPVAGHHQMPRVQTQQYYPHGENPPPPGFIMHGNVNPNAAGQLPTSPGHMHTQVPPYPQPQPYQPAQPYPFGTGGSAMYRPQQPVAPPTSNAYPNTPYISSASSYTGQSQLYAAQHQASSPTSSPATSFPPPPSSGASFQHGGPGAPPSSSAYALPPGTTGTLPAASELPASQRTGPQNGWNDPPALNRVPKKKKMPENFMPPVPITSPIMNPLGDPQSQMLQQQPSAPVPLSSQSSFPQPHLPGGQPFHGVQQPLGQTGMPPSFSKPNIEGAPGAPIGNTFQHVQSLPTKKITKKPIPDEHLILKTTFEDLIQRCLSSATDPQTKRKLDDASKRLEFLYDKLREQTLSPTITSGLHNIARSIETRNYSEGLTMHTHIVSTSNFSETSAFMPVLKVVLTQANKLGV
FLAG-tagged wild type (WT) Sec31 (from UniProt O94979) W985A, sequence (O94979 whole entry, stated change not applied): as above
GFP-Sec13, sequence (P55735 whole entry): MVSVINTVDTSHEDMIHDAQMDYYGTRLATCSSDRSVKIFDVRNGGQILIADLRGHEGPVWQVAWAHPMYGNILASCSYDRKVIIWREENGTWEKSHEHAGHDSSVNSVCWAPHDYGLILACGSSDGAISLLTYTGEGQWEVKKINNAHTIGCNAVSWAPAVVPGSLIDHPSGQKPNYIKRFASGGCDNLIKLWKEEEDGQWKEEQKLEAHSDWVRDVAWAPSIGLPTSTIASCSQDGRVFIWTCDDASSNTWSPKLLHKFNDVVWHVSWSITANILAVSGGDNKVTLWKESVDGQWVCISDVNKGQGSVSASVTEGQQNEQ
FLAG-tagged wild type (WT) Sec31 (from UniProt O94979) T1163A, sequence (O94979 whole entry, stated change not applied): as the sequence (O94979 whole entry, stated change not applied) above

ratio to parent (GFP-tagged Sec23 [1]) | other: normalized ratio of co-IP'ed Sec31 (GFP-Sec13) | ratio to parent (GFP-tagged Sec23 [2]) | fold change (Sec23) | Substance
3.2 | 1.4 | 3.1 |  | FLAG-tagged wild type (WT) Sec31 (from UniProt O94979) S527A; S799A; T1163A; T1165A
 | 1.1 |  |  | FLAG-tagged wild type (WT) Sec31 (from UniProt O94979) T1163A
0.3 |  | 0.33 |  | FLAG-tagged wild type (WT) Sec31 (from UniProt O94979) W985A
 |  |  | stronger | Sec31 (from UniProt O94979) S527A/S799A
